According to patent publication JP2023014062A (dated 2023):

What was measured:
[1] = molecular target: T1, SARS-CoV-2(従来株(武漢株))のSタンパク質のRBDタンパク質 (SARS-CoV-2(従来株(武漢株)), UniProt P0DTC2 322-536); test: X-ray crystal structure of the RBD-Fab complex
T1 construct: range 322-536

[2] = molecular target: T1, SARS-CoV-2(従来株(武漢株))のSタンパク質のRBDタンパク質; test: ELISA, RBD coated at 2 μg/ml, Expi293 culture supernatant, HRP anti-human IgG

| Binder | binding result [1] | binding result [2] |
| --- | --- | --- |
| 抗体NCV2SG48(Fab) (Fab, V domains shown, also called Fab(抗体NCV2SG48)) VH: EVQLVESGGGLIQPGGSLRLSCAASGFIVSRNYMNWVRQAPGKGLEWVALIYSGGSTFYADSVKGRFTISRDNSKNTLYLQMNSLRAEDTAVYYCARDLVVYGLDYWGQGTLVTVSS VL: AIQLTQSPSSLSASVGDRVTITCRASQGISSHLAWYQQKPGKAPKLLIFAASTLQSGVPSRFSGSGSGTDFTLTISSLQPEDFATYYCQHLNSNPPITFGQGTRLEIK | binds | – |
| 抗体NCV2SG53(Fab) (Fab, V domains shown, also called Fab(抗体NCV2SG53)) VH: QVQMVESGGGLVRPGGSLRLSCAASGFTFSDYYMSWIRQAPGKGLEWISYISSSGSSMNYADSVKGRFTISRDNAKNSLFLQMNSLRAEDTAVYYCAREFDLTKIIMVPPYWGQGTLVTVSS VL: AIQLTQSPSSLSASVGDRVTITCRASQGISSYLAWYQQKPGKAPKVLIYAASTLQSGVPSRFSGSGSGTDFTLTISSLQPEDFATYYCQQLKSYPLTFGGGTKVEIT | binds | – |
| 抗体NCV2SG53 (antibody, V domains shown) VH: QVQMVESGGGLVRPGGSLRLSCAASGFTFSDYYMSWIRQAPGKGLEWISYISSSGSSMNYADSVKGRFTISRDNAKNSLFLQMNSLRAEDTAVYYCAREFDLTKIIMVPPYWGQGTLVTVSS VL: AIQLTQSPSSLSASVGDRVTITCRASQGISSYLAWYQQKPGKAPKVLIYAASTLQSGVPSRFSGSGSGTDFTLTISSLQPEDFATYYCQQLKSYPLTFGGGTKVEIT | – | binds |
